Experimental data reported in IntAct's records for PubMed 31515488.

B1: Zinc finger protein 473 (Homo sapiens), Q8WTR7 (parent)
chain: MAEEFVTLKDVGMDFTLGDWEQLGLEQGDTFWDTALDNCQDLFLLDPPRPNLTSHPDGSEDLEPLAGGSPEATSPDVTETKNSPLMEDFFEEGFSQEIIEMLSKDGFWNSNFGEACIEDTWLDSLLGDPESLLRSDIATNGESPTECKSHELKRGLSPVSTVSTGEDSMVHNVSEKTLTPAKSKEYRGEFFSYSDHSQQDSVQEGEKPYQCSECGKSFSGSYRLTQHWITHTREKPTVHQECEQGFDRNASLSVYPKTHTGYKFYVCNEYGTTFSQSTYLWHQKTHTGEKPCKSQDSDHPPSHDTQPGEHQKTHTDSKSYNCNECGKAFTRIFHLTRHQKIHTRKRYECSKCQATFNLRKHLIQHQKTHAAKTTSECQECGKIFRHSSLLIEHQALHAGEEPYKCNERGKSFRHNSTLKIHQRVHSGEKPYKCSECGKAFHRHTHLNEHRRIHTGYRPHKCQECVRSFSRPSHLMRHQAIHTAEKPYSCAECKETFSDNNRLVQHQKMHTVKTPYECQECGERFICGSTLKCHESVHAREKQGFFVSGKILDQNPEQKEKCFKCNKCEKTFSCSKYLTQHERIHTRGVKPFECDQCGKAFGQSTRLIHHQRIHSRVRLYKWGEQGKAISSASLIKLQSFHTKEHPFKCNECGKTFSHSAHLSKHQLIHAGENPFKCSKCDRVFTQRNYLVQHERTHARKKPLVCNECGKTFRQSSCLSKHQRIHSGEKPYVCDYCGKAFGLSAELVRHQRIHTGEKPYVCQECGKAFTQSSCLSIHRRVHTGEKPYRCGECGKAFAQKANLTQHQRIHTGEKPYSCNVCGKAFVLSAHLNQHLRVHTQETLYQCQRCQKAFRCHSSLSRHQRVHNKQQYCL
partner: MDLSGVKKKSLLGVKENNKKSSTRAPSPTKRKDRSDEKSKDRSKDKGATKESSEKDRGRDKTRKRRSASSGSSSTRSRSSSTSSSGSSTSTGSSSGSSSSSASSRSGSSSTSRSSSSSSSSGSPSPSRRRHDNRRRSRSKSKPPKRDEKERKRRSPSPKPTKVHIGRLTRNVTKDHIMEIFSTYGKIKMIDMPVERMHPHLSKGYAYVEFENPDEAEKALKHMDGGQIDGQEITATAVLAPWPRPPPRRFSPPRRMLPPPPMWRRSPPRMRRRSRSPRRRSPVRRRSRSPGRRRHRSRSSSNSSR
B2: Vacuolar-sorting protein SNF8 (Homo sapiens), Q96H20 (parent)
chain: MHRRGVGAGAIAKKKLAEAKYKERGTVLAEDQLAQMSKQLDMFKTNLEEFASKHKQEIRKNPEFRVQFQDMCATIGVDPLASGKGFWSEMLGVGDFYYELGVQIIEVCLALKHRNGGLITLEELHQQVLKGRGKFAQDVSQDDLIRAIKKLKALGTGFGIIPVGGTYLIQSVPAELNMDHTVVLQLAEKNGYVTVSEIKASLKWETERARQVLEHLLKEGLAWLDLQAPGEAHYWLPALFTDLYSQEITAEEAREALP
partner: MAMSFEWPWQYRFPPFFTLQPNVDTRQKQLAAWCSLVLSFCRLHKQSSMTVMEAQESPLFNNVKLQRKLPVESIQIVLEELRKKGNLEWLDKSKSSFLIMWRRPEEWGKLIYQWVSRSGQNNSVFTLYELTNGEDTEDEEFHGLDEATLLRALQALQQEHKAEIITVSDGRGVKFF
B3: LHFPL tetraspan subfamily member 5 protein (Homo sapiens), Q8TAF8 (parent)
chain: MVKLLPAQEAAKIYHTNYVRNSRAVGVMWGTLTICFSVLVMALFIQPYWIGDSVNTPQAGYFGLFSYCVGNVLSSELICKGGPLDFSSIPSRAFKTAMFFVALGMFLIIGSIICFSLFFICNTATVYKICAWMQLAAATGLMIGCLVYPDGWDSSEVRRMCGEQTGKYTLGHCTIRWAFMLAILSIGDALILSFLAFVLGYRQDKLLPDDYKADGTEEV
B4: DNA topoisomerase 3-beta-1 (Homo sapiens), O95985 (parent)
chain: MKTVLMVAEKPSLAQSIAKILSRGSLSSHKGLNGACSVHEYTGTFAGQPVRFKMTSVCGHVMTLDFLGKYNKWDKVDPAELFSQAPTEKKEANPKLNMVKFLQVEGRGCDYIVLWLDCDKEGENICFEVLDAVLPVMNKAHGGEKTVFRARFSSITDTDICNAMACLGEPDHNEALSVDARQELDLRIGCAFTRFQTKYFQGKYGDLDSSLISFGPCQTPTLGFCVERHDKIQSFKPETYWVLQAKVNTDKDRSLLLDWDRVRVFDREIAQMFLNMTKLEKEAQVEATSRKEKAKQRPLALNTVEMLRVASSSLGMGPQHAMQTAERLYTQGYISYPRTETTHYPENFDLKGSLRQQANHPYWADTVKRLLAEGINRPRKGHDAGDHPPITPMKSATEAELGGDAWRLYEYITRHFIATVSHDCKYLQSTISFRIGPELFTCSGKTVLSPGFTEVMPWQSVPLEESLPTCQRGDAFPVGEVKMLEKQTNPPDYLTEAELITLMEKHGIGTDASIPVHINNICQRNYVTVESGRRLKPTNLGIVLVHGYYKIDAELVLPTIRSAVEKQLNLIAQGKADYRQVLGHTLDVFKRKFHYFVDSIAGMDELMEVSFSPLAATGKPLSRCGKCHRFMKYIQAKPSRLHCSHCDETYTLPQNGTIKLYKELRCPLDDFELVLWSSGSRGKSYPLCPYCYNHPPFRDMKKGMGCNECTHPSCQHSLSMLGIGQCVECESGVLVLDPTSGPKWKVACNKCNVVAHCFENAHRVRVSADTCSVCEAALLDVDFNKAKSPLPGDETQHMGCVFCDPVFQELVELKHAASCHPMHRGGPGRRQGRGRGRARRPPGKPNPRRPKDKMSALAAYFV
partner: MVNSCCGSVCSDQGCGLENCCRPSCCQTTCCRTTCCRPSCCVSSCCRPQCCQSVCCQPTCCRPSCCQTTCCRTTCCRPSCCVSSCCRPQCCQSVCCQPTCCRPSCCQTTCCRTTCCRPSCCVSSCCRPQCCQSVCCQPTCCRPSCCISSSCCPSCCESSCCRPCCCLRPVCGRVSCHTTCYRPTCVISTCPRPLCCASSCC

Variants of: B1
Settings: with rnps1_human RNPS1, Q15287

Question: How did the “effect of a mutation on the interaction” value turn out when Y456H was run?
Answer: The value was “with no effect”.

Variants of: B2
Settings: with vps25_human VPS25, Q9BRG1

Question: Which “effect of a mutation on the interaction” value does the source give for A17T here?
Answer: The value was “with no effect”.

Question: For Q185R, which “effect of a mutation on the interaction” value is on record?
Answer: The value was “with no effect”.

Variants of: B3
Settings: with BCL2L13, Q9BXK5
Chain of BCL2L13, Q9BXK5 (Q9BXK5 whole entry): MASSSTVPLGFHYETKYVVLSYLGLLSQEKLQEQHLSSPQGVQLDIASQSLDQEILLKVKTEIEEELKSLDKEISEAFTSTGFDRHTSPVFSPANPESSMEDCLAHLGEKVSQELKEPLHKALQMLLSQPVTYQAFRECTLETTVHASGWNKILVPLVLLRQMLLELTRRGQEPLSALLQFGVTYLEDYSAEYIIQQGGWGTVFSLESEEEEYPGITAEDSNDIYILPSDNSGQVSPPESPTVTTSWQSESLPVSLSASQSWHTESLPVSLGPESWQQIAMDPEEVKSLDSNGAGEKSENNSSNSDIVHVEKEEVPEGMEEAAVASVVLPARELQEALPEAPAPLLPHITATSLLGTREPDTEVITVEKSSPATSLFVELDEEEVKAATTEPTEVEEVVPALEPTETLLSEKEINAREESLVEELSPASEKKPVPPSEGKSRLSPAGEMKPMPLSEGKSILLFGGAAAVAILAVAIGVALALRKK

Question: With K205N as the variant, how does the “effect of a mutation on the interaction” value read?
Answer: Its value is “with no effect”.

Variants of: B4
Settings: with kr412_human KRTAP4-12, Q9BQ66

Question: R267W was tested. Which “effect of a mutation on the interaction” value did it give?
Answer: Its value is “with no effect”.
